Measured values taken from article PMC11855083.

Target: T1, His6-NfxB (Pseudomonas aeruginosa PAO1?) (UniProt P32265)
T1 sequence: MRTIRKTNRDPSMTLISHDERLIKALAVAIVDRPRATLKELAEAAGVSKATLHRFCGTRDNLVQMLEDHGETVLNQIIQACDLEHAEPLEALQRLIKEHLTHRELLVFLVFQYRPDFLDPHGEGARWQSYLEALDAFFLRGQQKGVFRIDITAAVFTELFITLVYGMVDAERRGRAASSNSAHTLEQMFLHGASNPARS
Test: EMSA
Details: pH 7.0, room temperature, 10 min ([…]

With “ACGCAAATCAGCCATGACACACCCGACCGTTGATTGAAAACGGATCGAATGGTACTTTTTCGAGCTAATTGAGTCAATATTGTCTCAAATGATCTTTTGACAGCTAATTCCTTTGGACGCGAGGCCAGTTTTCTGCACAATGCGCACAATCAGAAAAACCAACCGGGACCCATCGATGACCCTGAT (double strand) [mexC promoter]” the binding was “binds”.
For “ATCTTTCCTCCCGTGTGGCTCGCGCCACTACGCTATGCAAGCGCCCGCCACCATGGCAGGCGCTGTCGTTGAATGCCTCAGGCCTCTTTGGCCGAAGGCAGCTTGGA (double strand) [hcp1T (hcp1 promoter with potential NfxB motif truncated)]”, the binding was “no binding”.
For “TCCAAGCTGCCTTCGGCCAAAGAGGCCTGAGGCATTCAACGACAGCGCCTGCCATGGTGGCGGGCGCTTGCATAGCGTAGTGGCGCGAGCCACACGGGAGGAAAGATGGCTGTTGATATGTTCATCAAGATCGGC (double strand) [hcp1 promoter (phcp1)]”, the binding was “binds”.
